{"source": "patent US20210317456", "key": {"[1]": {"system": "IgG3-Kappa (Homo sapiens), P01860-1+P01834", "sequence (P01860 other isoform, or with tags, fused parts or gaps, chain 1 of 2, other chains not shown)": "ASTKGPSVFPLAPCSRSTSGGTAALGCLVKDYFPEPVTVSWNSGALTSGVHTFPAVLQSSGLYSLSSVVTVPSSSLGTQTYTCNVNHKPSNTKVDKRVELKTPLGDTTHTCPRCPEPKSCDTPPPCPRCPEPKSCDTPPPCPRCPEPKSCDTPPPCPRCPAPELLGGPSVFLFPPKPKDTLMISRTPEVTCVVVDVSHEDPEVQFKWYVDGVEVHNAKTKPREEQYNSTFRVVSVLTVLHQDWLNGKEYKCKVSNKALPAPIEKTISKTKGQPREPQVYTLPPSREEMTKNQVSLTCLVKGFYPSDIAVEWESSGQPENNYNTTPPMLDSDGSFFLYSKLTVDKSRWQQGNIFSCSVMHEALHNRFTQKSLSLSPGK", "assay": "pulldown", "conditions": "Protein L beads"}, "[2]": {"system": "IgG4-Kappa (Homo sapiens), P01861-1+P01834", "sequence (P01861 other isoform, or with tags, fused parts or gaps, chain 1 of 2, other chains not shown)": "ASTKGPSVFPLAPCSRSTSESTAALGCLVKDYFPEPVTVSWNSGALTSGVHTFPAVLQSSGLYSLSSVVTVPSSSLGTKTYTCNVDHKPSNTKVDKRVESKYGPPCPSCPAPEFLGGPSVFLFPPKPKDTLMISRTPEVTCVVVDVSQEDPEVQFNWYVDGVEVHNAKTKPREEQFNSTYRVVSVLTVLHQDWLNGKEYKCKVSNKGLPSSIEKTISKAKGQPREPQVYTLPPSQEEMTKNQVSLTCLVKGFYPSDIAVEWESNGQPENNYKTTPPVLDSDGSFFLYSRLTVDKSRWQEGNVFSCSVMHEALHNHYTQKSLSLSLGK", "assay": "pulldown", "conditions": "Protein L beads"}, "[3]": {"system": "IgG1-Kappa (Homo sapiens), P01857-1+P01834", "assay": "pulldown", "conditions": "Protein L beads"}, "[4]": {"system": "Immunoglobulin G (total IgG)", "assay": "pulldown", "conditions": "SB18, 37C"}, "[5]": {"system": "β-FGFR fusion (Fc fusion protein) (Homo sapiens)", "assay": "filter", "conditions": "Zorbax, SB18, 37 C"}, "IgD (Homo sapiens) [6]": {"system": "IgD (Homo sapiens)", "assay": "filter", "conditions": "Zorbax, SB18, 37 C"}, "[7]": {"system": "Total IgG (rabbit) (Oryctolagus cuniculus)", "assay": "filter", "conditions": "Zorbax, SB18, 37 C"}, "[8]": {"system": "Total IgG (monkey) (monkey)", "assay": "filter", "conditions": "Zorbax, SB18, 37 C"}, "IgM (Homo sapiens) [9]": {"system": "IgM (Homo sapiens)", "assay": "filter", "conditions": "Zorbax, SB18, 37 C"}, "IgA (Homo sapiens) [10]": {"system": "IgA (Homo sapiens)", "assay": "filter", "conditions": "Zorbax, SB18, 37 C"}, "[11]": {"system": "Total IgG (mouse) (Mus musculus)", "assay": "pulldown", "conditions": "P = 2NapdU; Zorbax beads, SB18, 37C"}, "[12]": {"system": "β-FGFR fusion (Fc fusion protein) (Homo sapiens)", "assay": "pulldown", "conditions": "37C, bead partitioning"}, "[13]": {"system": "Total IgG (cow) (Bos taurus)", "assay": "pulldown", "conditions": "P = 2NapdU; Zorbax beads, SB18, 37C"}, "[14]": {"system": "Total IgG (goat) (Capra hircus)", "assay": "pulldown", "conditions": "P = 2NapdU; Zorbax beads, SB18, 37C"}, "[15]": {"system": "IgG3-Fc (Homo sapiens), P01860-1", "sequence (P01860 other isoform, or with tags, fused parts or gaps)": "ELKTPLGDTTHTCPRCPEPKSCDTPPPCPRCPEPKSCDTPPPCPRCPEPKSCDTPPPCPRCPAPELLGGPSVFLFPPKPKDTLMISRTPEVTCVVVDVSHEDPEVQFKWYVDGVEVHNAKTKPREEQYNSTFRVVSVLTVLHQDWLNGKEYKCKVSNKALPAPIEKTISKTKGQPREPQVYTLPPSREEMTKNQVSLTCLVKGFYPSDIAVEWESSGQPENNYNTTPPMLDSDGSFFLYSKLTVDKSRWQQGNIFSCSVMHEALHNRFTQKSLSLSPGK", "assay": "pulldown", "conditions": "37C, bead partitioning"}, "[16]": {"system": "IgG2-Fc (Homo sapiens), P01859-1", "sequence (P01859 other isoform, or with tags, fused parts or gaps)": "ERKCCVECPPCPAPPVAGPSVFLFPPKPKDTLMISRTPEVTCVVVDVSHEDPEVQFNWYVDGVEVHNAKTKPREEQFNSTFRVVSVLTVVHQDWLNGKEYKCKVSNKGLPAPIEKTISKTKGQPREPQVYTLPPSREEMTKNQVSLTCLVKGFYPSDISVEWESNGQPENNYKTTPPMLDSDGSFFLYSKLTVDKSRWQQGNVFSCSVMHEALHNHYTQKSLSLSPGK", "assay": "pulldown", "conditions": "37C, bead partitioning"}, "IgM (cow) (Bos taurus)": {"system": "IgM (cow) (Bos taurus)", "assay": "pulldown", "conditions": "P = 2NapdU; Zorbax beads, SB18, 37C"}, "IgD (Homo sapiens) [17]": {"system": "IgD (Homo sapiens)", "assay": "pulldown", "conditions": "Zorbax beads, SB18, 37C"}, "[18]": {"system": "Total IgG (rabbit) (Oryctolagus cuniculus)", "assay": "pulldown", "conditions": "Zorbax beads, SB18, 37C"}, "[19]": {"system": "Total IgG (sheep) (Ovis aries)", "assay": "pulldown", "conditions": "P = 2NapdU; Zorbax beads, SB18, 37C"}, "[20]": {"system": "Total IgG (monkey) (monkey)", "assay": "pulldown", "conditions": "Zorbax beads, SB18, 37C"}, "IgM (Homo sapiens) [21]": {"system": "IgM (Homo sapiens)", "assay": "pulldown", "conditions": "Zorbax beads, SB18, 37C"}, "[22]": {"system": "IgG1 (mouse) (Mus musculus)", "assay": "pulldown", "conditions": "P = 2NapdU; Protein L beads, SB17; printed as 3E07 (minus sign missing)"}, "[23]": {"system": "IgG4-Fc (Homo sapiens), P01861-1", "sequence (P01861 other isoform, or with tags, fused parts or gaps)": "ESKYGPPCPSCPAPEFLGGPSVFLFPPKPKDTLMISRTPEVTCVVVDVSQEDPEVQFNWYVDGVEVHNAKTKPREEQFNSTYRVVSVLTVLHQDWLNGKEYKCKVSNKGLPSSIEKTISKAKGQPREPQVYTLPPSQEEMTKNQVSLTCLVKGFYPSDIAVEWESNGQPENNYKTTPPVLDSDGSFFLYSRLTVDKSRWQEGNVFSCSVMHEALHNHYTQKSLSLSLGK", "assay": "pulldown", "conditions": "37C, bead partitioning"}, "[24]": {"system": "IgG1-Fc (Homo sapiens), P01857-1", "assay": "pulldown", "conditions": "37C, bead partitioning"}, "IgA (Homo sapiens) [25]": {"system": "IgA (Homo sapiens)", "assay": "pulldown", "conditions": "Zorbax beads, SB18, 37C"}, "[26]": {"system": "IgG3-Fc (Homo sapiens), P01860-1", "assay": "filter", "conditions": "n (P) = NapdU; Zorbax, SB18, 37 C"}, "[27]": {"system": "IgG2-Fc (Homo sapiens), P01859-1", "assay": "filter", "conditions": "n (P) = NapdU; Zorbax, SB18, 37 C"}, "[28]": {"system": "IgG4-Fc (Homo sapiens), P01861-1", "assay": "filter", "conditions": "n (P) = NapdU; Zorbax, SB18, 37 C"}, "[29]": {"system": "IgG1-Fc (Homo sapiens), P01857-1", "assay": "filter", "conditions": "n (P) = NapdU; Zorbax, SB18, 37 C"}}, "data": [{"sequence": "CGGCACTCCACATCCAAGACTGCGGTTACCTTGTAGGCGATTATGGGCAG [5334-8_3]", "values": [{"measurement": "Kd", "setting": "[1]; n (P) = 2NapdU, SB17, 37 C", "result": 0.007, "unit": "µM"}, {"measurement": "Kd", "setting": "[2]; n (P) = 2NapdU, SB17, 37 C", "result": 0.01, "unit": "µM"}, {"measurement": "Kd", "setting": "[3]; n (P) = 2NapdU, SB17, 37 C", "result": 0.04, "unit": "µM"}, {"measurement": "Kd", "setting": "[4]; P = 2NapdU at all n positions, 12.2 nM in Table 4", "result": 0.00752, "unit": "µM"}, {"measurement": "Kd", "setting": "[5]; n (P) = 2NapdU", "result": 0.009, "unit": "µM"}, {"measurement": "Kd", "setting": "IgD (Homo sapiens) [6]; n (P) = 2NapdU", "result": 0.6, "unit": "µM"}, {"measurement": "Kd", "setting": "[7]; n (P) = 2NapdU", "result": 0.02, "unit": "µM"}, {"measurement": "Kd", "setting": "[8]; n (P) = 2NapdU", "result": 0.02, "unit": "µM"}, {"measurement": "Kd", "setting": "IgM (Homo sapiens) [9]; n (P) = 2NapdU", "result": 0.1, "unit": "µM"}, {"measurement": "Kd", "setting": "IgA (Homo sapiens) [10]; n (P) = 2NapdU", "result": 0.2, "unit": "µM"}]}, {"sequence": "GCGGTTACCTTGTAGGCGATTATGGGCA [5334-8_34]", "values": [{"measurement": "Kd", "setting": "[11]", "result": 0.2, "unit": "µM"}, {"measurement": "Kd", "setting": "[12]; P = 2NapdU", "result": 0.002, "unit": "µM"}, {"measurement": "Kd", "setting": "[13]", "result": 0.5, "unit": "µM"}, {"measurement": "Kd", "setting": "[14]", "result": 0.6, "unit": "µM"}, {"measurement": "Kd", "setting": "[15]; P = 2NapdU", "result": 0.001, "unit": "µM"}, {"measurement": "Kd", "setting": "[1]; P = 2NapdU, SB17, 37C", "result": 0.004, "unit": "µM"}, {"measurement": "Kd", "setting": "[16]; P = 2NapdU", "result": 0.002, "unit": "µM"}, {"measurement": "Kd", "setting": "IgM (cow) (Bos taurus)", "result": 0.04, "unit": "µM"}, {"measurement": "Kd", "setting": "IgD (Homo sapiens) [17]; P = 2NapdU", "result": 0.06, "unit": "µM"}, {"measurement": "Kd", "setting": "[18]; P = 2NapdU", "result": 0.009, "unit": "µM"}, {"measurement": "Kd", "setting": "[2]; P = 2NapdU, SB17, 37C", "result": 0.003, "unit": "µM"}, {"measurement": "Kd", "setting": "[19]", "result": 0.5, "unit": "µM"}, {"measurement": "Kd", "setting": "[20]; P = 2NapdU", "result": 0.006, "unit": "µM"}, {"measurement": "Kd", "setting": "[3]; P = 2NapdU, SB17, 37C", "result": 0.02, "unit": "µM"}, {"measurement": "Kd", "setting": "IgM (Homo sapiens) [21]; P = 2NapdU", "result": 0.0006, "unit": "µM"}, {"measurement": "Kd", "setting": "[22]", "result": 0.3, "unit": "µM"}, {"measurement": "Kd", "setting": "[23]; P = 2NapdU", "result": 0.002, "unit": "µM"}, {"measurement": "Kd", "setting": "[24]; P = 2NapdU", "result": 0.005, "unit": "µM"}, {"measurement": "Kd", "setting": "IgA (Homo sapiens) [25]; P = 2NapdU", "result": 0.04, "unit": "µM"}, {"measurement": "Kd", "setting": "[4]; P = 2NapdU, 8E-09 M in Table 7", "result": 0.00971, "unit": "µM"}]}, {"sequence": "TGGCGAACTCCCTGAATGCTCTTGTCTT [14125-144_30]", "values": [{"measurement": "Kd", "setting": "[12]; P = NapdU", "result": 0.004, "unit": "µM"}, {"measurement": "Kd", "setting": "[15]; P = NapdU", "result": 0.002, "unit": "µM"}, {"measurement": "Kd", "setting": "[1]; P = NapdU, SB17, 37C", "result": 0.008, "unit": "µM"}, {"measurement": "Kd", "setting": "[16]; P = NapdU", "result": 0.007, "unit": "µM"}, {"measurement": "Kd", "setting": "IgD (Homo sapiens) [17]; P = NapdU", "result": 0.08, "unit": "µM"}, {"measurement": "Kd", "setting": "[18]; P = NapdU", "result": 0.1, "unit": "µM"}, {"measurement": "Kd", "setting": "[2]; P = NapdU, SB17, 37C", "result": 0.004, "unit": "µM"}, {"measurement": "Kd", "setting": "[20]; P = NapdU", "result": 0.06, "unit": "µM"}, {"measurement": "Kd", "setting": "[3]; P = NapdU, SB17, 37C", "result": 0.04, "unit": "µM"}, {"measurement": "Kd", "setting": "IgM (Homo sapiens) [21]; P = NapdU", "result": 0.006, "unit": "µM"}, {"measurement": "Kd", "setting": "[23]; P = NapdU", "result": 0.03, "unit": "µM"}, {"measurement": "Kd", "setting": "[24]; P = NapdU", "result": 0.03, "unit": "µM"}, {"measurement": "Kd", "setting": "IgA (Homo sapiens) [25]; P = NapdU", "result": 0.1, "unit": "µM"}, {"measurement": "Kd", "setting": "[4]; P = NapdU, 3E-08 M in Table 7", "result": 0.00818, "unit": "µM"}]}, {"sequence": "GCCTGCACGATGGCGAACTCCCTGAATGCTCTTGTCTTAAGTCCCCAACA [14125-144_3]", "values": [{"measurement": "Kd", "setting": "[1]; n (P) = NapdU, SB17, 37 C", "result": 0.004, "unit": "µM"}, {"measurement": "Kd", "setting": "[2]; n (P) = NapdU, SB17, 37 C", "result": 0.005, "unit": "µM"}, {"measurement": "Kd", "setting": "[3]; n (P) = NapdU, SB17, 37 C", "result": 0.02, "unit": "µM"}, {"measurement": "Kd", "setting": "[4]; P = NapdU at all n positions, 18.8 nM in Table 6", "result": 0.0163, "unit": "µM"}, {"measurement": "Kd", "setting": "[5]; n (P) = NapdU", "result": 0.003, "unit": "µM"}, {"measurement": "Kd", "setting": "[26]", "result": 0.005, "unit": "µM"}, {"measurement": "Kd", "setting": "[27]", "result": 0.008, "unit": "µM"}, {"measurement": "Kd", "setting": "IgD (Homo sapiens) [6]; n (P) = NapdU", "result": 0.6, "unit": "µM"}, {"measurement": "Kd", "setting": "[7]; n (P) = NapdU", "result": 0.04, "unit": "µM"}, {"measurement": "Kd", "setting": "[8]; n (P) = NapdU", "result": 0.08, "unit": "µM"}, {"measurement": "Kd", "setting": "IgM (Homo sapiens) [9]; n (P) = NapdU", "result": 0.04, "unit": "µM"}, {"measurement": "Kd", "setting": "[28]", "result": 0.02, "unit": "µM"}, {"measurement": "Kd", "setting": "[29]", "result": 0.04, "unit": "µM"}, {"measurement": "Kd", "setting": "IgA (Homo sapiens) [10]; n (P) = NapdU", "result": 0.03, "unit": "µM"}]}]}
